Test results published in patent US20020122799A1 (published 2002).

Assays:
[1] = molecular target: T1, wild-type human RAGE (Receptor for Advanced Glycation Endproducts) (human, UniProt Q15109 23-404); test: binding to endothelial cells in culture wells
T1 construct: whole, on cells; also called Receptor for AGE; wild-type RAGE (Gly82)

[2] = molecular target: T1, wild-type human RAGE (Receptor for …); test: cell-based or functional assay
mutant human RAGE (82S) [3] = molecular target: T2, mutant human RAGE (82S) (human, UniProt Q15109 23-404); test: cell-based or functional assay
[4] = molecular target: T1, wild-type human RAGE (Receptor for …); test: radioligand binding to stably transfected CHO cells expressing wild-type human RAGE, Klotz-Hunston fit
Description: (§1) FIG. 11A. Immunoblotting. Lysates of stably-transfected CHO cells were prepared and subjected to immunoblotting using anti-human RAGE IgG (2 μg/ml). FIGS. 11B-C. Radioligand binding assays. Purified EN-RAGE was radiolabelled using ¹²⁵-I and radioligand binding assays were performed in 96-well tissue culture dishes containing the indicated transfected CHO cells. Assays were performed in the presence of the indicated concentration of radiolabelled EN-RAGE±an 50-fold molar excess of unlabeled EN-RAGE. Elution of bound material was performed in a solution containing heparin. Equilibrium binding data were analyzed according to the equation of Klotz and Hunston. Where indicated, pretreatment with either antibodies (70 μg/ml), human soluble RAGE or bovine serum albumin (50-fold molar excess) was performed. The mean±standard deviation (SD) is shown. In FIG. 11C, * indicates p<0.01 versus respective controls. FIG. 11D. Activation of p44/p42 MAP kinases. The indicated stably-transfected CHO cells were incubated with EN-RAGE, 10 μg/ml, for one hr. Cell lysates were subjected to SDS-PAGE and transfer of the gels' contents to nitrocellulose. Immunblotting was performed using anti-phosphorylated p44/p42 MAP kinase (1 μg/ml). […] In FIGS. 11D-11E, bands were scanned into a densitometer, and band density was quantified using ImageQuant. […]

macrophage (MP) RAGE = molecular target: T3, macrophage (MP) RAGE; test: binding to macrophages in culture wells
T3 construct: whole, on cells; also called RAGE on macrophages

mutant human RAGE (82S) [5] = molecular target: T2, mutant human RAGE (82S); test: radioligand binding to stably transfected CHO cells expressing human RAGE (82S), Klotz-Hunston fit
Description: as §1

immobilized RAGE = immobilized RAGE (Homo sapiens (Human), UniProt Q15109 23-342); test: binding to RAGE immobilized in culture wells
immobilized RAGE, sequence (Q15109 23-342 limits assumed, form in doubt): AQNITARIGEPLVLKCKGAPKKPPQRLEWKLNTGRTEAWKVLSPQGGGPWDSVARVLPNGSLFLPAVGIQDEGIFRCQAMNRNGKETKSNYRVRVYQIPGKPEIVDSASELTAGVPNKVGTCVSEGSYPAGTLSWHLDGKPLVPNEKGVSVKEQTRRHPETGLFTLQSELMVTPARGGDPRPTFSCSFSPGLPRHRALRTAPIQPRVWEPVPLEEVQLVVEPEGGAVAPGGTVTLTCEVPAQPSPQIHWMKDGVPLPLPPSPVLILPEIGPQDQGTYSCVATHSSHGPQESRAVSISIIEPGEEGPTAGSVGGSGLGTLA

T2 sequence (Q15109 other isoform, or with tags, fused parts or gaps mutant): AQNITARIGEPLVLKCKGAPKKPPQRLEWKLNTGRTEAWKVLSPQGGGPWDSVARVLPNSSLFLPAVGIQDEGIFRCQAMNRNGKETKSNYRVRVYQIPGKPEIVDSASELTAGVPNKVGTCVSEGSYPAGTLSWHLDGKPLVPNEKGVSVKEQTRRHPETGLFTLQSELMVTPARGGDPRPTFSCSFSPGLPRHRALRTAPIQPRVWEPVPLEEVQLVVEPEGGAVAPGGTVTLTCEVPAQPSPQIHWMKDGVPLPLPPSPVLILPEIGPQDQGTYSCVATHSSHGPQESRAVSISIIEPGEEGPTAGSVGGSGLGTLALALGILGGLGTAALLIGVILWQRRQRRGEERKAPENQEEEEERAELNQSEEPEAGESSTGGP
T1 sequence (Q15109 23-404): as the sequence (Q15109 other isoform, or with tags, fused parts or gaps mutant) above, with S60G counted along it

B1: EN-RAGE (Extracellular Novel RAGE binding protein) (ligand, bovine, UniProt P79105 2-92, looked up)
chain: TKLEDHLEGIINIFHQYSVRVGHFDTLNKRELKQLITKELPKTLQNTKDQPTIDKIFQDLDADKDGAVSFEEFVVLVSRVLKTAHIDIHKE
modifications: radiolabelled with 125-I (Iodobeads) in the radioligand binding assays
notes: mature; also called S100A12
Kd [1]: ~75 nM
MMP-9 activity (zymography) of human MPs [2]: ~2.3 fold
NF-kB nuclear binding activity (EMSA) in CHO transfectants [2]: ~5.4 fold
activation of p44/p42 MAP kinases in human MPs [2]: ~2.2 fold
adhesion of Molt-4 cells to cultured ECs [2]: 7 fold
expression of cell-surface VCAM-1 on cultured ECs [2]: 4.3 fold
generation of IL-6 by human MPs [2]: ~1.5 fold
generation of TNF-alpha by human MPs [2]: ~4 fold
phosphorylated p44/42 MAP kinases in CHO transfectants [2]: ~2 fold
IL-6, mutant RAGE against wild-type MPs (mutant human RAGE (82S) [3]): ~7.3 fold
MMP-9 activity (zymography) of human MPs (mutant human RAGE (82S) [3]): ~4.7 fold
MMP-9 activity, mutant RAGE allele against wild-type receptor MPs (mutant human RAGE (82S) [3]): ~2 fold
NF-kB gel shift band (EMSA) in CHO transfectants (mutant human RAGE (82S) [3]): ~11.3 fold
NF-κB activation, mutant against wild-type receptor (mutant human RAGE (82S) [3]): ~2.1 fold
TNF-alpha, RAGE (G82S)/(S82S) against wild-type RAGE MPs (mutant human RAGE (82S) [3]): ~4.5 fold
elaborated TNF-alpha by human MPs (mutant human RAGE (82S) [3]): ~17.8 fold
generation of IL-6 by human MPs (mutant human RAGE (82S) [3]): ~10.9 fold
phosphorylated p44/42 MAP kinases in CHO transfectants (mutant human RAGE (82S) [3]): ~3.9 fold
phosphorylated p44 and p42 MAP kinases in human MPs (mutant human RAGE (82S) [3]): ~4.8 fold
Kd [4]: ~122 nM
Kd (macrophage (MP) RAGE): ~75 nM
Kd (mutant human RAGE (82S) [5]): ~77 nM
Kd (immobilized RAGE): ~75 nM
